Experimental data as given in publication PMC7502549 (Journal of molecular biology, 2020).

Target: the molecule itself
Assay: AUC

B1: Neurotrimin (NTM) extracellular domain, a.a. 36-311, with C-terminal linker and hexahistidine tag (domain or fragment, human, UniProt Q9P121 36-311, looked up)
chain: ATFPKAMDNVTVRQGESATLRCTIDNRVTRVAWLNRSTILYAGNDKWCLDPRVVLLSNTQTQYSIEIQNVDVYDEGPYTCSVQTDNHPKTSRVHLIVQVSPKIVEISSDISINEGNNISLTCIATGRPEPTVTWRHISPKAVGFVSEDEYLEIQGITREQSGDYECSASNDVAAPVVRRVKVTVNYPPYISEAKGTGVPVGQKGTLQCEASAVPSAEFQWYKDDKRLIEGKKGVKVENRPFLSKLIFFNVSEHDYGNYTCVASNKLGHTNASIMLF
modifications: N-linked glycosylation (extensive)
In the case of B1, the “stoichiometry N” value is reported as 2.
